Data on 3 molecules can be found in patent publication US20200347146A1 (published 2020).

The target in assay [1] is human PD-L1 on PD-L1 positive Raji cells (human, UniProt Q9NZQ7 19-290). Briefly: flow cytometry cell binding. (A flow cytometer gives signals particle by particle.)
Assay [2] deals with T1, human CD73 protein (soluble) (human, UniProt P21589 27-549).
T1 chain: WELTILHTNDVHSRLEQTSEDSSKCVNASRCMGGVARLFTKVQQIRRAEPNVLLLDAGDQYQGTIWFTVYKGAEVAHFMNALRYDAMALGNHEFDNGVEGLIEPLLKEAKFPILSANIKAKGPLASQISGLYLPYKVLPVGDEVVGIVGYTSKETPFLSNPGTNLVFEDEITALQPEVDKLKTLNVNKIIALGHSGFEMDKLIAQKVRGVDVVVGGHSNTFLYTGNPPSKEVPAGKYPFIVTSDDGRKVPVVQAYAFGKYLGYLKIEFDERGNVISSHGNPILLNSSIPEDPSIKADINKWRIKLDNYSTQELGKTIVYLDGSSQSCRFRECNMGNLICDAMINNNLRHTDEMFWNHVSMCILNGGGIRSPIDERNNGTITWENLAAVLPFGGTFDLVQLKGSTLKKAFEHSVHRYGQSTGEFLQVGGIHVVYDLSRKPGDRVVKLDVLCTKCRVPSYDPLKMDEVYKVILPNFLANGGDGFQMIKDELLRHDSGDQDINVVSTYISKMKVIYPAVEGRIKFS
Put plainly: ELISA. (In an ELISA, binding on a coated surface is turned into a signal by an enzyme label.)

Assay [3] addresses T2, CD73 on the surface of A375 cells (UniProt P21589 27-549).
T2 chain: T1 chain
Briefly: flow cytometry cell binding.

In assay [4] the target is human PD-L1 protein (soluble) (human, UniProt Q9NZQ7 19-238). Put plainly: ELISA.

For orientation: EC50 means the midpoint of the concentration-response curve.

Chain of human PD-L1 on PD-L1 positive Raji cells (Q9NZQ7 19-290): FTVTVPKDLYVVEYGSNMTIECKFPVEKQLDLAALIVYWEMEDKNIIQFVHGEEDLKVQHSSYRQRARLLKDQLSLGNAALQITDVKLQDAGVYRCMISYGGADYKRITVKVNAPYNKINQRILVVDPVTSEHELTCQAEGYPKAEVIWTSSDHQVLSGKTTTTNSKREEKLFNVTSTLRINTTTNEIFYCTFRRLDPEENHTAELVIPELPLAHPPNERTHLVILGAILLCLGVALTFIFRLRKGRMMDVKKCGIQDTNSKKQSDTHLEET
Chain of human PD-L1 protein (soluble) (Q9NZQ7 19-238): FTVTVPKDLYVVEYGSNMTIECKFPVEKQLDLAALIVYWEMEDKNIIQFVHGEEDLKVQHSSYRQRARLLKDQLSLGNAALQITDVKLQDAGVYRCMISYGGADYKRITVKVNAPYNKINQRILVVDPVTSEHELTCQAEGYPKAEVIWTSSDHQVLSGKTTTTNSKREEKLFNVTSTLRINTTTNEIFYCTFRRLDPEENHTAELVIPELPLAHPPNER

B1: anti-CD73/PD-L1 bispecific antibody 309-H12 (structure A of FIG. 1) (bispecific antibody)
heavy: not shown
light: EIVLSQSPATLSLSPGERATLSCRASSRVNYMHWYQQKPGQSPRPWISATSNLASGVPARFSGSGSGTSYTLTISSLEPEDFAVYYCQQWSSNPPTFGGGTKVEIKRTVAAPSVFIFPPSDEQLKSGTASVVCLLNNFYPREAKVQWKVDNALQSGNSQESVTEQDSKDSTYSLSSTLTLSKADYEKHKVYACEVTHQGLSSPVTKSFNRGEC
As for B1, the concentration for a half-maximal effect (EC50) came to 0.255 nM in assay [1], 0.0715 nM in assay [2], 2.24 nM in assay [3] and 0.179 nM in assay [4].

B2: hu309 (monospecific anti-CD73 antibody with the 309 VH and 309 VL) (antibody, V domains shown)
VH: EVQLQESGPGLVKPSETLSLTCAVSGYSITSGYYWNWIRQPPGKKLEWMGYINYGGSNGYNPSLKSRITISRDTSKNQFSLKLSSVTAADTAVYYCARDYDAYYEALDDWGQGTTVTVSS
VL: EIVLSQSPATLSLSPGERATLSCRASSRVNYMHWYQQKPGQSPRPWISATSNLASGVPARFSGSGSGTSYTLTISSLEPEDFAVYYCQQWSSNPPTFGGGTKVEIK
Regarding B2, the results for the EC50 in assay [2] and in assay [3] were 0.0575 nM and 2.06 nM, respectively.

B3: H12(PDL1) (monospecific anti-PD-L1 antibody with the H12 VH and H12 VL) (antibody, V domains shown)
VH: EVQLVESGGGLVQPGGSLRLSCAASGFTFSSYDMSWVRQAPGKSLEWVATISDAGGYIYYRDSVKGRFTISRDNAKNSLYLQMNSLRDEDTAVYICARELPWRYALDYWGQGTTVTVSS
VL: DIQMTQSPSSLSASVGDRVTITCKASQDVTPAVAWYQQKPGKAPKLLIYSTSSRYTGVPSRFSGSGSGTDFTFTISSLQPEDIATYYCQQHYTTPLTFGQGTKLEIK
As for B3, the values for the EC50 in assay [1] and in assay [4] were 0.0237 nM and 0.00948 nM, respectively.
